Reference: the DeepSol protein solubility set

Experiment: soluble on expression in E. coli; label from the status in PepcDB or PDB records
In the case of “MGSDKIHHHHHHMQLIFFRGMKELLSTMDLDTDANTIPELKERAHMLCARFLGGAWKTVPLEHLRISRIKGGMSNMLFLCRLSEVYPPIRNEPNKVLLRVYFNPETESHLVAESVIFTLLSERHLGPKLYGIFSGGRLEEYIPSRPLSCHEISLAHMSTKIAKRVAKVHQLEVPIWKEPDYLCEALQRWLKQLTGTVDAEHRFDLPEECGVSSVNCLDLARELEFLRAHISLSKSPVTFCHNDLQEGNILLPKASSGNIRMPSLSDETQALGNSLSAFNPADPRLVLIDFEYASYNYRAFDFANHFIEWTIDYDIDEAPFYKIQTENFPENDQMLEFFLNYLREQGNTRENELYKKSEDLVQETLPFVPVSHFFWGLRERSSVAVLQT”, the “soluble on expression in E. coli” value is reported as “not soluble”.
In the case of “MGSDKIHHHHHHMQLLGPTSNTFISQRLRLHYVDWGNADKPPLLLVHGGRDHCRSWDWTAEALREDWHIIALDHRGHGDSQWTQDGNYRTMDLVYDVAQLIHQLDLAPVTIVSHSWGANTSLRYAGLFPENVRKIVAIEGLFPTPEREALMKDVPFARRVREFIVEKRKAAGRLPRRYATLEDAYARMKGENPYLTDAQARHLTLHGINRNEDGTFSWKFDPHLNVDGAPYDISTDQRNELWGAITCPTLLLNGADSWAGNPDRNGMAQHFRNAQVVEFENAGHWLHHDQFDRFIATLRDFL”, the “soluble on expression in E. coli” value is reported as “not soluble”.
In the case of “MGSDKIHHHHHHMQMFCYQCSQTANGTGCTEYGVCGKSPTVARLQDNLVFAIKGISAYYYHARELGYDDPEIAGFLDEALYSTLTNVNFDAQSFVEYALEAGRMNLKAMQLLKKAHIETYGEPTPVEVETGTKKGKGIIVTGHNLKALEELLKQVEGTNVYVYTHSEMLPAHGYPGLRKYKNLIGNLGKAWYDQRKLFAEYPVAILGTSNCVLIPSESYRDRMFTTSIARLPGVKHIDGYDYTEVIEKAKSLPDLEEKPGSYKLRTGFSTSVVVSLADKIKELVEAGKIKHFLVVGGCDVPFKRNEYYREFVQKLPKETVVITLACGKFRINDLDLGDIDGIPRLIDVGQCNDTIVAIEIAQALAKVFGVEVTELPLTLVLTWMEQKAVAILWTLLALGLKNIYVGPVLPAWVNEDILKVLTAEFGLKTISEP”, the “soluble on expression in E. coli” value is reported as “not soluble”.
For “MGSDKIHHHHHHMQNLPIYLYPNTLDVILDSGATTKGVNRVMYQHELKIQKGIKNKVRIQFKNSDQKRIVTSGTYVFSMYDAINQRLLLEKPLDILDDGTTFALRGLAELTLTENDTMDLDVSKYQFSVKYLDEDGTYLPTYSNTYYGVTGTLNLLQDVYPVLQPSQEITSFDRTYDDSIQLYQWRSGNIYATPEFNGNSALHTIAMYMTGFKGKVLVQGTLYNTPSSFNRYVTLGRKRV”, the “soluble on expression in E. coli” value was “not soluble”.
In the case of “MGSDKIHHHHHHMQNPAIGNVADTTASDFAELPATASHGPLRIEYRWVNAAAGNAPIAVFLHEGLGSVTMWRDWPQALCERLGMRGLVYSRPGYGLSTPRPHDVKWPADFMTAQARDILPALLDALCIDMRERRRMWVIGHSDGGSITLLYAALYPEELAGAVAIAPHVFVEDISVESIAQTRQLYETTDLRSKLGRYHADVDSAFYGWNDIWLNPAFRQWSIAGELTSIRKPLLAVQGHDDNYGTMAQIDTIAAHVPHAQLVKLDACGHSPHRDAPQPLNKAIAAFVLKDGVA”, the “soluble on expression in E. coli” value is reported as “not soluble”.
For “MGSDKIHHHHHHMQPETSAQYQHRFSQAIRGGEAADGLPQDRLNVYIRLIRNNIHSFIDRCYTETRQYFDSKEWSRLKEGFVRDARAQTPYFQEIPGEFLQYCQSLPLSDGILALMDFEYTQLLAEVAQIPDIPDIHYSNDSKYTPSPAAFIRQYRYDVTHDLQEAETALLIWRNAEDDVMYQTLDGFDMMLLEIMGSSALSFDTLAQTLVEFMPKADNWKNILLGKWSGWIEQRIIIPSLSAISENMEGNSPSQNHLSA”, the “soluble on expression in E. coli” value was “not soluble”.
For “MGSDKIHHHHHHMQPSAVTNTTNLTASPSQFYTWQNYRCTYEIHQPTNTTSEGIPLLLIHPIGVGLSRQFWQRFCHEWYNSGQRNSIYNPDLLGCGESDMPHLAYTPSDWAEQLQYFLQTVVRQPVIVVVQGALLPVAIALVQKESNLISRLVLSGPPTWALMTNKPPEWQQKFIWNVLDSPLGIPFYRYARTPKFLRSFSTRQLFASESAVDAEWLNTLVAGAENPASRHAVFSFLAGFWRQDYTNFMASIQQPTLAVVGETASSISQNNKKETPDDRLANYLACFPQSRGIKINGRNVLPYESTAEFVAAIAPFINEVS”, the “soluble on expression in E. coli” value was “not soluble”.
With “MGSDKIHHHHHHMQPYYWESAHGNFGDDLNLWLWDFLMPGFRDVHPETLLVGVGTVLNRALLPEGQHKLVIGSGFGYGSLPDMSRPEEWDIRSVRGPLTAKALGLPPEKGVIDPAVMLADMPEFQKLPKLYKKSFVPHWESAVAGVWASIVPKVGLTYIDPCGEAKAVIRQILQSEVIIAESMHGAIIADALRVPWVAVSTSASINSFKWNDWASTLGVTYKPLRVPLSSRAEAQIKGESFWGMSFKNHQPAPENPNDLAVDAAVLEQARGPKQTGLRTAVKQILAGPAMLNLWKASQAEPQLSRDSVLQERKARFLEVIEGVRRDYGIAAVS” the “soluble on expression in E. coli” value was “not soluble”.
For “MGSDKIHHHHHHMQRDLGKNVKLFNDIKADDLSVMLSCLGVKNQQYEKRSIIIMAEDNVDHVGVVLRGAVLIVKEDFSGNRSIVDHIGQYEMFGEAFACAGIQKSPVTVVAAEKSEIMWIQFRRIFNTCSMSCVFHAKLIENMMKVLAVKNLQMNQKLEITSKRNLRDKLMAYLLIQAKEAKSFDFIIPLNRSELADYLYVDRSALSRELCKMRDEGLIEFKKNHFCMSPM”, the “soluble on expression in E. coli” value was “not soluble”.
For “MGSDKIHHHHHHMQRKKIGVALGSGAAKGWAHIGVLNALTEMGIEVDVVAGCSIGALVGAAYATNNLSSMDRWVRSFGYWDVIRLMDLSWQRGSLLRGDRVFNSVKHLLHTTQIEDCDIKYGVVTTNLSTGRELWLTEGDLHQAMRASCSMPGLLSPVRFNDYWLVDGAVVNPVPVSLARAMGADIVIAVDLQHDASLNHQDLLSIKPTASDIDAENVPQDWRSRIRERLLRGRRHPAESSPTAMEIMSTSIQILENRLKMTRMAGDPPDVLLQPHCPQIATLDFHRAQEAIDAGYKAVEKMRDELLPLAKEA”, the “soluble on expression in E. coli” value was “not soluble”.
In the case of “MGSDKIHHHHHHMQSLPHDVVGYARDYRDGYVSVRHRHPRHQLIYAISGLMMAETDAMSHAIPPGYGLIVPAQQPHEIRMIGAVRLQSLYVRAGLPRADALARCRLVTISPLLAQLIAALCEMANPWPMPPRALHLSQLILIELLAAPVSPLALPYPTDPRLRRVCDGLIATPASPRSLDDWAAEAGMSRRTFSRHFQLETGLSFGKWAQRLRCQAALRGLAKGRPAARVARELGYANAYTMAAMMRRMT”, the “soluble on expression in E. coli” value is reported as “not soluble”.
In the case of “MGSDKIHHHHHHMRAEIRNLNVKGGHYYLELAEKDADTDKVIASCKATIWKFSASKIVLKFERETGIELASDLNVLIKIRARFDPQYGFSVNIEEIDSSFTLGEIAKRYQQIVERLTQEGLIHKNKLLPTPFDIQNVLVIAPQNAAGLGDFKKDADALERNGVCHFVYQSATFQGNTAAVSLMESLATGLKQWANNFNFPPDLIVIIRGGGAVNDLAYLNDYELAALLCKRSVPIWVGIGHEKDRTILDEIAHRSFDTPSKVIAGIRNHIVERVQEAVDNLQTIKLLSQHQITTYQSKSDQYLQHIKSSAQAQLNSAHQFLEQIKERIQFVSQQQVKFSLSQTESLMREILLQNPKQIQAKGYAIVRSEGKAIRSIHQITNSTITVDMQDGAINANITEVIPNE”, the “soluble on expression in E. coli” value is reported as “not soluble”.
For “MGSDKIHHHHHHMRDLLQRPDLFSINTATLGYKTPLPAIIDACAARGIGAIAPWRRELQGEDLQQITRQLAASNMSVSGLCRSTYYTAPTLAERKLAIDDNRRALDDAAVLNAACYMQVVGGLPTGTKDLYEAREQVKQGIRQLLPHSKDVGVPIALEPLHPMTAADRSCLCTLRQALDWCDELDPDGEFGLGVAVDVYHVWWDPDLASQILRAGKRILAFHVSDWLMPTTDLVNDRGMPGDGVINIPSIRRLVENAGFNGAIELEIFSPYWWQKDINSTGNDSNLLIVFYVQIMPDDLVMQLHRF”, the “soluble on expression in E. coli” value was “not soluble”.
In the case of “MGSDKIHHHHHHMRDQADRLREMALNLKQEIEAEIRRDLRYSRVVVISSGKGGVGKSTLALNLSLNLCARGMKIILMDADMGLANLDVMLGLVTKFNIYHIVQQKKSMEEITISGPEGLKIIPGGSGISELANLENTELKRILVELRKLDGAYDYMIIDTGAGISKSVMNFLLAAEDIIVITTPEPTAITDAYSLVKNVAKNSFAGSIYLVVNKVANDSEGILVAEKFKLVCQKFLSCEIKPLGHIVNEPLIGEGIRRQKAFVQIYPRSTATRNINTIVDRLIEASGQKSPGLESKRGGIRYFIEKIAGLVK”, the “soluble on expression in E. coli” value is reported as “not soluble”.
In the case of “MGSDKIHHHHHHMREAMYWKPLGDGRVRCELCPLRCIIDEGKRGSCKIRINKGGKLYTLNYGKVSSIALDPIEKKPLFHFWPGSCALSIGTVGCNMHCKHCQNWEISQADESFPYLQDATPEAIVSLAKHYECESIAYTYNEPTIWYEFVLDTAKLARKEGLNNILVTNGYINEEPFRELAPYIDAMNIDIKAFDDKFYMKIASVPSGEPSRRIAEIAKKEFKIHVELTYLIIPTLNDKEEEIREFARWVVENLGDDTPVHFSRFFPHYKLLNLPPTPIETLEKAYKIAKEEGLKFVYLGNVPGHPGENTYCPSCGKLLIERWGFDIIRYDIVDGKCKYCGEKIPIVGKYQKKKYRGMWW”, the “soluble on expression in E. coli” value is reported as “not soluble”.
In the case of “MGSDKIHHHHHHMRERAAVPPRAVQHSDDVAMVLRMDQPDFIQITDDAVSRDDCAAIVQRMRDSQQLQPGRIGSGVFPDLKHSRDLRISGLADWAAVENRLQQAVFEGLLRYLRQYPQALISPLMLQVTTADGTPHRLVAEDIAQMSDAALSDLARTCLRPGAINLQWYLADQGGYPYWHCELYPRDAGAETLHRHLLWTLYLNEEFEQGETEFLFQQRKARPRTGSLLIAPTAFTHTHRGNRPVGGDKFIATSWILFQSAQALYGGE”, the “soluble on expression in E. coli” value is reported as “not soluble”.
For “MGSDKIHHHHHHMRGTIMDDLNDLYYFVKVVEHGGFTQAGRALGVPKSTLSRRIAALEAQYDVRLLQRTTRHFTVTETGREFYDRCLGVLVEAEAAREVIERKHAEPQGIVSLSCPTALLEYRVSGLVARFMAIHPKVQVHLEATNRRVDLLSEGIDLALRVRFPPLEDSGLVMRVLGDSPQRLVAAPHLLGGRDLPTSPDELAGVPSVDWGPPRHHLWQLVGPQGVEAQLRHHPRFITDDMHALRDAALHGVGIAQLPCMVVEDDLRDGTLVDVLPGWVPKGGVIHAVFPSRRGLLPRVRLLIDFLAAHIQKD”, the “soluble on expression in E. coli” value was “not soluble”.
In the case of “MGSDKIHHHHHHMRHFIYQDEKSHKFRAVEQQGNELHISWGKVGTKGQSQIKSFSDAAAAAKAELKLIAEKVKKGYVEQAKDNSLQPSQTVTGSLKVADLSTIIQEQPSFVAETRAPDKNTDAVLPWLAKDIAVVFPPEVVHTTLSHRRFPGVPVQQADKLPQLRRLACSVSQRDNKTATFDFSACSLEWQNTVAQAISQIDGLKTTQLPSPVMAVLTALEMKCTRYKVREDVMDQIVQEGGLEYATDVIIHLQQIDIEWDYANNVIIILPSGIAPSYLEQYSRFE”, the “soluble on expression in E. coli” value is reported as “not soluble”.
In the case of “MGSDKIHHHHHHMRIFTASLATETNTFSPVPTDRASFEMAFYAAPGKHPETPTLCSSPIVALRKRAAAEGLTVIEGTATWAEPGGLLQRQAFEELRDEILDQLKAAMPVDAVVLGLHGAMVAQGYDDCEGDLLERVRAIVGPGVLVASEFDPHSHLTPKRVQNLNIFASFLEFPHTDFYERGEHVVELALDALKGRTKPVISTFDCRMIAVLPTSKEPMRSFVDRIKALQGKDGILSISVIHGFMAADVPEMGTRILVVTDNDPQAGAALAAALGRELIAMREQTSMAMLDTDQGIDRALAAHAANPSKPAVIADVWDNPGGGVAGDGTYILRRLIERGVNNAGIATIWDPIAVTFCHAAGEGAVIDLRFGGKSGPLGGEPIDARVTVLKVANEGWQSFGPSRVTLGPSAVVRIEDTGIDIILNTNRTQTFEPDIFSNLGIDPMTKNVLVVKSTNHFHAGFAPVAAEIIYVDAPSSYPSNPRTTNYRKLNRAIWPRVEDPW”, the “soluble on expression in E. coli” value is reported as “not soluble”.
